From patent US20220213151A1
Like-named read-outs stand apart in the source and are kept apart here.

What was measured:
[1] = target: rhu EGFR (Fc) (human (rhu)) (UniProt P00533)
[2] = target: rhu EGFR (Fc) (human (rhu)) (UniProt P00533); test: pH 6

Q: Which Kd [1] does the source give for “A-dmDT390-EGF (other; other documents disagree on this pair)” here?
A: The Kd was 5.81 nM.

Q: What about the Kd [2] of the same substance?
A: The Kd was 102 nM.
